Molecular target: the molecule itself
Experiment: cryo-EM structure

Row | Protein | stoichiometry N
1 | human Kir7.1 R162Q mutant (natural protein) MDSSNCKVIAPLLSQRYRRMVTKDGHSTLQMDGAQRGLAYLRDAWGILMDMRWRWMMLVFSASFVVHWLVFAVLWYVLAEMNGDLELDHDAPPENHTICVKYITSFTAAFSFSLETQLTIGYGTMFPSGDCPSAIALLAIQMLLGLMLEAFITGAFVAKIAQPKNRAFSIRFTDTAVVAHMDGKPNLIFQVANTRPSPLTSVRVSAVLYQERENGKLYQTSVDFHLDGISSDECPFFIFPLTYYHSITPSSPLATLLQHENPSHFELVVFLSAMQEGTGEICQRRTSYLPSEIMLHHCFASLLTRGSKGEYQIKMENFDKTVPEFPTPLVSKSPNRTDLDIHINGQSIDNFQISETGLTE | 4
2 | human Kir7.1 E276A mutant (natural protein) MDSSNCKVIAPLLSQRYRRMVTKDGHSTLQMDGAQRGLAYLRDAWGILMDMRWRWMMLVFSASFVVHWLVFAVLWYVLAEMNGDLELDHDAPPENHTICVKYITSFTAAFSFSLETQLTIGYGTMFPSGDCPSAIALLAIQMLLGLMLEAFITGAFVAKIARPKNRAFSIRFTDTAVVAHMDGKPNLIFQVANTRPSPLTSVRVSAVLYQERENGKLYQTSVDFHLDGISSDECPFFIFPLTYYHSITPSSPLATLLQHENPSHFELVVFLSAMQAGTGEICQRRTSYLPSEIMLHHCFASLLTRGSKGEYQIKMENFDKTVPEFPTPLVSKSPNRTDLDIHINGQSIDNFQISETGLTE | 4

Reference: publication PMC11185801 (bioRxiv, 2024)
